Results reported in US20100173362A1 (published 2010).

How the values were obtained:
[1] = target: T1, recombinant human HGF (R&D Systems, Catalog No. 294-HGN-025) (human, UniProt P14210 32-728); assay: cell-based or functional assay
[2] = target: T1, recombinant human HGF (R&D Systems, …); assay: SPR (BIAcore), KD at 25 C against KD at 37 C; upper end fits 2B8 in Table 19
Description: (§1) The antibodies were captured in an individual flow cell at a flow rate of 10 μL/min. Injection time was variable for each antibody to yield approximately 20 RU of antibody captured for each cycle. […] The dissociation phase was monitored for 15 or 90 minutes, depending on concentration. The surface of mouse anti-human immunoglobulins sensor chips was then regenerated with 10 mM Glycine-HCl, pH 2.2 (BIAcore, Catalog No. BR-1003-54) injected for 3 minutes at a flow rate of 60 μL/min before another cycle was initiated. The surface of rabbit anti-mouse immunoglobulins sensor chips was regenerated with 10 mM Glycine-HCl, pH 1.7 (BIAcore, Catalog No. BR-1003-54) injected for 3 minutes at a flow rate of 60 μL/min before another cycle was initiated.

[3] = target: T1, recombinant human HGF (R&D Systems, …); assay: SPR (BIAcore), KD at 25 C against KD at 37 C; lower end fits sh2B8-9 in Table 19
Description: as §1

T1 sequence (P14210 32-728 limits assumed): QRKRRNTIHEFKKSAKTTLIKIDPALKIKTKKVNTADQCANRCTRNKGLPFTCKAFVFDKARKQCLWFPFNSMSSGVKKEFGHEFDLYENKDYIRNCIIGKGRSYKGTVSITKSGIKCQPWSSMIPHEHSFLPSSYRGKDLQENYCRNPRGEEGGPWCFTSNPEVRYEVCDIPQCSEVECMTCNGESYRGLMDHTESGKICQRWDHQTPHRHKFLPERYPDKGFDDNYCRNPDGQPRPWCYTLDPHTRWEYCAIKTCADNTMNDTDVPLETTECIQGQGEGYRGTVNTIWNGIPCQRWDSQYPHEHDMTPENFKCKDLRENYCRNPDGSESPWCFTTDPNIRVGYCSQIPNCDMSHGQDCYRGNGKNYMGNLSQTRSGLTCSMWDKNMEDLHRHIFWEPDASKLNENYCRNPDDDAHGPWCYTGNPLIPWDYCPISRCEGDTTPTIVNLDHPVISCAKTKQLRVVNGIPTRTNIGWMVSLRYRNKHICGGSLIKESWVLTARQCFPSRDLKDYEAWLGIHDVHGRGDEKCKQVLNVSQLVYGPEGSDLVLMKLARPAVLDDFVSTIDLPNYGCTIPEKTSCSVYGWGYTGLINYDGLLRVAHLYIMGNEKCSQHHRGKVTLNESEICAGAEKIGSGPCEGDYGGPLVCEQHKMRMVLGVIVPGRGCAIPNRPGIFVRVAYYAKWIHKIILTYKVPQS

| Binder | HGF-stimulated c-Met phosphorylation in PC-3 cells, Average of Two Trials [1] | fold smaller KD at 37° C. than at 25° C. [2] | fold smaller KD at 37° C. than at 25° C. [3] |
| --- | --- | --- | --- |
| HE2B8-1 (antibody, human IgG1, kappa, V domains shown) VH: QVQLVQPGAEVVKPGTSVKLSCKASGYTFTTYWMHWVNQAPGQGLEWIGEINPTNGHTNYNEKFKGKATLTVDKSTSTAYMELSSLRSEDTAVYYCARNYVGSIFDYWGQGTLLTVSS VL: DIVMTQSPDSMAMSVGERVTLNCKASENVVSYVSWYQQKPGQSPKLLIYGASNRNTGVPDRFSGSGSATDFTLTISSVQAEDVADYHCGQSYNYPYTFGQGTKLEIKR | 0.8 nM | – | – |
| HE2B8-2 (antibody, human IgG1, kappa, V domains shown) VH: QVQLVQPGAEVVKPGTSVKLSCKASGYTFTTYWMHWVNQAPGQGLEWIGEINPTNGHTNYNEKFKGKATLTVDKSTSTAYMELSSLRSEDTAVYYCARNYVGSIFDYWGQGTLLTVSS VL: DIVMTQSPDSLAMSLGERVTLNCKASENVVSYVSWYQQKPGQSPKLLIYGASNRESGVPDRFSGSGSATDFTLTISSVQAEDVADYHCGQSYNYPYTFGQGTKLEIKR | 0.88 nM | – | – |
| 2B8 (antibody, mouse IgG1, kappa, also called murine 2B8; mouse 2B8) heavy: QVQLQQPGAELVKPGTSVKLSCKASGYTFTTYWMHWVNQRPGQGLEWIGEINPTNGHTNYNEKFKSKATLTVDKSSSTAYMQLSSLTSEDSAVYYCARNYVGSIFDYWGQGTTLTVSSAKTTPPSVYPLAPGSAAQTNSMVTLGCLVKGYFPEPVTVTWNSGSLSSGVHTFPAVLQSDLYTLSSSVTVPSSTWPSETVTCNVAHPASSTKVDKKIVPRDCGCKPCICTVPEVSSVFIFPPKPKDVLTITLTPKVTCVVVDISKDDPEVQFSWFVDDVEVHTAQTQPREEQFNSTFRSVSELPIMHQDWLNGKEFKCRVNSAAFPAPIEKTISKTKGRPKAPQVYTIPPPKEQMAKDKVSLTCMITDFFPEDITVEWQWNGQPAENYKNTQPIMDTDGSYFVYSKLNVQKSNWEAGNTFTCSVLHEGLHNHHTEKSLSHSPGK light: NIVMTQSPKSMSMSVGERVTLSCKASENVVSYVSWYQQKPAQSPKLLIYGASNRNTGVPDRFTGSGSATDFTLTISSVRAEDLADYHCGQSYNYPYTFGGGTRLEIKRADAAPTVSIFPPSSEQLTSGGASVVCFLNNFYPKDINVKWKIDGSERQNGVLNSWTDQDSKDSTYSMSSTLTLTKDEYERHNSYTCEATHKTSTSPIVKSFNRNEC | 0.91 nM | 1.4 to 3 fold | – |

Further lines, results first:

| HGF-stimulated c-Met phosphorylation in PC-3 cells, Average of Two Trials [1] | fold smaller KD at 37° C. than at 25° C. [2] | fold smaller KD at 37° C. than at 25° C. [3] | Binder |
| --- | --- | --- | --- |
| 0.75 nM | – | – | HE2B8-4 (antibody, human IgG1, kappa, V domains shown) VH: QVQLVQPGAEVKKPGTSVKLSCKASGYTFTTYWMHWVRQAPGQGLEWIGEINPTNGHTNYNQKFQGRATLTVDKSTSTAYMELSSLRSEDTAVYYCARNYVGSIFDYWGQGTLLTVSS VL: DIVMTQSPDSLAMSLGERVTLNCKASENVVSYVSWYQQKPGQSPKLLIYGASNRESGVPDRFSGSGSATDFTLTISSVQAEDVADYHCGQSYNYPYTFGQGTKLEIKR |
| 0.79 nM | – | – | HE2B8-3 (antibody, human IgG1, kappa, V domains shown) VH: QVQLVQPGAEVKKPGTSVKLSCKASGYTFTTYWMHWVRQAPGQGLEWIGEINPTNGHTNYNQKFQGRATLTVDKSTSTAYMELSSLRSEDTAVYYCARNYVGSIFDYWGQGTLLTVSS VL: DIVMTQSPDSMAMSVGERVTLNCKASENVVSYVSWYQQKPGQSPKLLIYGASNRNTGVPDRFSGSGSATDFTLTISSVQAEDVADYHCGQSYNYPYTFGQGTKLEIKR |
| 0.93 nM | – | 1.4 to 3 fold | sh2B8-9 (G1m(3)) (antibody, human IgG1, kappa, superhumanized 2B8, human IgG1 G1m(3) allotype (allele 2), kappa Km(3) (allele 2), made in 293T cells) heavy: not shown light: DIQMTQSPSSLSASVGDRVTITCKASENVVSYVSWYQQKPGKAPKLLIYGASNRNTGVPSRFSGSGSGTDFTLTISSLQPEDFATYYCGQSYNYPYTFGQGTKLEIKRTVAAPSVFIFPPSDEQLKSGTASVVCLLNNFYPREAKVQWKVDNALQSGNSQESVTEQDSKDSTYSLSSTLTLSKADYEKHKVYACEVTHQGLSSPVTKSFNRGEC |
